These are literature values, as cited in patent US11034725B2, “Compositions and methods for treating cardiovascular disease” (Genentech, Inc., priority 2016, dated 2021).

Values joined by “and” are separate entries in the source; they are usually repeats but may differ in a detail not shown here. Identical values can stand only once.

One data set addresses PCSK9 (Homo sapiens, UniProt Q8NBP7). As to conditions: Zhang et al. 2014; cited from earlier work.
In another data set the target is T1, LDLR ectodomain (Homo sapiens, UniProt P01130).
T1 construct: purchased R & D Systems
T1 sequence (P01130 22-788 limits assumed): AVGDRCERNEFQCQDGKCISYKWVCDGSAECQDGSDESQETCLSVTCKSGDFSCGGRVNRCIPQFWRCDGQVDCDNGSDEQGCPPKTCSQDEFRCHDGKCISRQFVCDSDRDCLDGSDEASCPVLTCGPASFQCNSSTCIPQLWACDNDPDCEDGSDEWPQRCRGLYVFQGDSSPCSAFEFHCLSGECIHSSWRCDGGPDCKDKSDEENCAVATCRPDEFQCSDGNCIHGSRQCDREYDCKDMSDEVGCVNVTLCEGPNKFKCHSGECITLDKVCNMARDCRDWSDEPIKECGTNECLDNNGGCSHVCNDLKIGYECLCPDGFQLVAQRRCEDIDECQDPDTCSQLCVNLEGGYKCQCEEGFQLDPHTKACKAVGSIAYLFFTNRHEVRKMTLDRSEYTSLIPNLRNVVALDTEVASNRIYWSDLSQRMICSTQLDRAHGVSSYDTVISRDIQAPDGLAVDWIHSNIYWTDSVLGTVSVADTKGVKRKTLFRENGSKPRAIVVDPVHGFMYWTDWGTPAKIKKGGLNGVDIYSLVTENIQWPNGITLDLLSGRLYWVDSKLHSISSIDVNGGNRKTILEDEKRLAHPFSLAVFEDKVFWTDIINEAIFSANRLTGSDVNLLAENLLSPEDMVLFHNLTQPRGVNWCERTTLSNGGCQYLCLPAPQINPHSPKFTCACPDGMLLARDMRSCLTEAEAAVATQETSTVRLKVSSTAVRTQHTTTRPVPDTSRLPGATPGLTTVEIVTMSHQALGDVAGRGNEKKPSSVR
As to conditions: biolayer interferometry, Lipari et al. 2012; read-out: Kd, binding to LDLR, previously reported; cited from earlier work. (In general: In BLI a coated tip is dipped into the sample, and binding shifts an interference pattern.)

Chain of PCSK9 (Q8NBP7 153-692): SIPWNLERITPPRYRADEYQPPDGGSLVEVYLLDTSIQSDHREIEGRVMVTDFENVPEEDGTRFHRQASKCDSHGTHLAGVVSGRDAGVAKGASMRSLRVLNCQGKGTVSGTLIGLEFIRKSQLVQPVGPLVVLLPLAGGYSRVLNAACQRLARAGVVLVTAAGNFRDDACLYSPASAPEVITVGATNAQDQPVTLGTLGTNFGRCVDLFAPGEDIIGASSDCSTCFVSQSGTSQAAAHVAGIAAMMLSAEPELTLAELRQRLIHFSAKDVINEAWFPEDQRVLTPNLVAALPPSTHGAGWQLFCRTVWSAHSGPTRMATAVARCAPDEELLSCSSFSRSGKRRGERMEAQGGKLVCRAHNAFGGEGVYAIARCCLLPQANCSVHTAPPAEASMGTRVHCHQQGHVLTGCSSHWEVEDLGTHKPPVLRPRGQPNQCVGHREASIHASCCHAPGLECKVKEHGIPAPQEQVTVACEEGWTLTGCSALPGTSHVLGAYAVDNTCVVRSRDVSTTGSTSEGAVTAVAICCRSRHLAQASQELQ

Turning to Ac-TAFTSWEEYLDWV-NH2 [Pep2-8V2A], the “reduction of affinity for PCSK9 versus Pep2-8” value in the data set with PCSK9 is listed as “about 10 fold”.

A word on the Kd: it is the equilibrium constant for the complex coming apart. As to “wildtype PCSK9: wildtype proprotein convertase subtilisin/kexin type 9”, in the data set with LDLR ectodomain, the Kd was 130 nM and 170 nM.
